Ends that are not written are not given here.
T1: NPNA4 peptide (Plasmodium falciparum (isolate 3D7)., not fully specified)
T1 construct: source: synthetic peptide (InnoPep Inc, purity >=97%)
T1 chain: NPNANPNANPNANPNA

T2: NPNA8 peptide (Plasmodium falciparum (isolate 3D7)., not fully specified)
T2 construct: source: synthetic peptide (InnoPep Inc, purity >=97%)
T2 chain: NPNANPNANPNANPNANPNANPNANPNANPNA

T3: NPNA8 peptide (used for cryo-EM with Fab 227) (Plasmodium falciparum, not fully specified)
T3 construct: source: synthetic peptide (InnoPep Inc)
T3 chain: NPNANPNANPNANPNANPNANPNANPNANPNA

T4: NPNA4 peptide, biotinylated at the C-terminus (BLI) (Plasmodium falciparum (isolate 3D7).)
T4 construct: source: synthetic peptide (InnoPep Inc)
T4 chain: NPNANPNANPNANPNA-biotin


Key:
Conditions in all cases: both partners purified
NPNA4 peptide = target: T1, NPNA4 peptide; assay: BLI
NPNA8 peptide = target: T2, NPNA8 peptide; assay: BLI
[1] = target: T3, NPNA8 peptide (used for cryo-EM with …); assay: cryo-EM structure; saturating amounts of Fab incubated with rsCSP (or NPNA8 for Fab 227) overnight at 4 °C, complex purified by SEC (Superose 6 Increase, TBS), single particle cryo-EM
[2] = target: T3, NPNA8 peptide (used for cryo-EM with …); assay: as above
[3] = target: T4, NPNA4 peptide, biotinylated at the …; assay: BLI

Binder	Kd (NPNA4 peptide) [nM]	Kd (NPNA8 peptide) [nM]	also measured
311R Fab (Fab, V domains shown, also called Fab311R; germline-reverted 311; source: ExpiCHO cells, purified (mAb Select PrismA or Capture Select, SEC)) VH: QVQLVESGGGVVPPGRSLRLSCATSGFTFSSYGMHWVRQAPGKGLEWVAIIWYDGSNKFYAASVKGRFTISRDNSKNTLYLQMNSLRVEDTAVYYCARAAYYDTSGYGDYWGQGTLVTVSS VL: QSVLTQPPSVSGAPGQTVTISCTGGSSNIGAGYDVHWYQQLPGTAPKLLIYGNINRPSGVPDRFSGSKSGTSASLAITGLQAEDEADYYCQSYDSSLSGSWVFGGGTKLTVL	131	401	
Fab of mAb 227 (Fab, V domains shown, also called 227 Fab; source: ExpiCHO cells, purified (mAb Select PrismA or Capture Select, SEC)) VH: QVQLVQSGGGVVQPGRSLRLSCVTSGFTFPAFGMHWVRQAPGKGLEWVAVIWYDGSKKYYADSVRGRFTISRDNSRNTLYLQMHSLRAEDTAVYYCARVKNYESSGYSQCLDYWGQGVLVTVAS VL: QSVLTQPPSVSGAPGQRVTISCTGSSSNIGAGYDVHWYQQLPGTAPKLLIYGNGNRPSGVPDRFSGSKSGTSVSLAITGLQAEDEADYYCQSYDSSLSAFVFGTGTKVTVL			stoichiometry N [1]: 4 Fabs per NPNA8 disc; stoichiometry N [2]: 8 Fabs bound
Fab 356R, germline-reverted mutant of 356 (Fab, V domains shown, source: ExpiCHO cells, purified (mAb Select PrismA or Capture Select, SEC)) VH: QVQLVESGGGVVQPGRSLRLSCAASGFTFSSYGMHWVRQTPGKGLEWVAVIWHDGSNKFYADSVKGRFTISRDNSKNMIYLQMNSLRVEDTAIYYCARDSLFYDHDNSGYYGYWGQGTLVTVSS VL: EIVMTQSPATVSVSPGERATLSCRASQSVTSKLAWYQQKPGQAPRLLIYGASTRATGIPARFSGSGSGTEFTLTISSLQSEDFAVYFCQQYNNGFTFGPGTKVDFK			fold change of apparent affinity against 356 [3]: ~2 fold
Fab 239R, germline-reverted mutant of 239 (Fab, V domains shown, source: ExpiCHO cells, purified (mAb Select PrismA or Capture Select, SEC)) VH: QVQLVESGGGVVQPGRSLRLSCAASRLTFSSYGMHWVRQTPGKGLEWVAVIWHDGSNKFYADSVKGRFTISRDNSKNTLYLQMNSLRDEDTAIYYCAKDWGGASDRVFDYWGRGTLVIVSS VL: DIQMTQSPSTLSASVGDRVTITCRASQSVSTSLAWYQQKPGKAPNLLIYQASTLYTGVPSRFSGSGSGTEFTLTIGSLQPDDFATYYCQHYNSYSRITFGQGTRLEIK			fold change of apparent affinity against 239 [3]: ~2 fold
239R Fab (Fab, V domains shown, also called Fab239R; 239 FabR; source: ExpiCHO cells, purified (mAb Select PrismA or Capture Select, SEC)) VH: QVQLVESGGGVVQPGRSLRLSCAASRLTFSSYGMHWVRQTPGKGLEWVAVIWHDGSNKFYADSVKGRFTISRDNSKNTLYLQMNSLRDEDTAIYYCAKDWGGASDRVFDYWGRGTLVIVSS VL: DIQMTQSPSTLSASVGDRVTITCRASQSVSTSLAWYQQKPGKAPNLLIYQASTLYTGVPSRFSGSGSGTEFTLTIGSLQPDDFATYYCQHYNSYSRITFGQGTRLEIK	165	205	

Source: PMC10382551, “Affinity-matured homotypic interactions induce spectrum of PfCSP structures that influence protection from malaria infection” (Nature Communications, 2023)
